The supplement of paper PMC5998384

Tests used:
HeLa Kyoto [1] = assay: melting temperature (median over replicates), in situ; higher = more thermally stable
HeLa Kyoto [2] = assay: thermal stability score vs G1/S (z-score of summed log2 fold changes over temperatures); higher = more thermally stable than in G1/S
[3] = cell cycle stage: early G1 (4.5 h after nocodazole release)
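Wherever melting temperature (median over replicates), in situ is given: HeLa Kyoto cells synchronized by double thymidine or nocodazole block, proteins quantified by TMT10plex mass spectrometry, three independent biological replicates.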
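Wherever thermal stability score vs G1/S (z-score of summed log2 fold changes over temperatures) is given: synchronized HeLa Kyoto cells, proteins quantified by TMT10plex mass spectrometry, three biological replicates, mitosis taken 0.5 h after nocodazole release, G1/S directly after double thymidine block.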

Chain of ARF1 (chain, as listed by the source): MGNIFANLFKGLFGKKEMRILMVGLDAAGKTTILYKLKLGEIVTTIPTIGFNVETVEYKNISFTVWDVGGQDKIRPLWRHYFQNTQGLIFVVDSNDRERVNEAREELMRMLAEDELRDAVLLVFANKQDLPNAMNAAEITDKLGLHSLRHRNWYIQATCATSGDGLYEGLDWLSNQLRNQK

Substance	melting temperature (HeLa Kyoto [1]; cell cycle stage: G1/S) [°C]	melting temperature (HeLa Kyoto [1]; cell cycle stage: mitosis) [°C]	thermal stability score (HeLa Kyoto [2]; [3])	thermal stability score (HeLa Kyoto [2]; cell cycle stage: mitosis)
MVGGGGVGGGLLENANPLIYQRSGERPVTAGEEDEQVPDSIDAREIFDLIRSINDPEHPLTLEELNVVEQVRVQVSDPESTVAVAFTPTIPHCSMATLIGLSIKVKLLRSLPQRFKMDVHITPGTHASEHAVNKQLADKERVAAALENTHLLEVVNQCLSARS [FAM96B]	50.3	52.7		
MLLATLLLLLLGGALAHPDRIIFPNHACEDPPAVLLEVQGTLQRPLVRDSRTSPANCTWLILGSKEQTVTIRFQKLHLACGSERLTLRSPLQPLISLCEAPPSPLQLPGGNVTITYSYAGARAPMGQGFLLSYSQDWLMCLQEEFQCLNHRCVSAVQRCDGVDACGDGSDEAGCSSDPFPGLTPRPVPSLPCNVTLEDFYGVFSSPGYTHLASVSHPQSCHWLLDPHDGRRLAVRFTALDLGFGDAVHVYDGPGPPESSRLLRSLTHFSNGKAVTVETLSGQAVVSYHTVAWSNGRGFNATYHVRGYCLPWDRPCGLGSGLGAGEGLGERCYSEAQRCDGSWDCADGTDEEDCPGCPPGHFPCGAAGTSGATACYLPADRCNYQTFCADGADERRCRHCQPGNFRCRDEKCVYETWVCDGQPDCADGSDEWDCSYVLPRKVITAAVIGSLVCGLLLVIALGCTCKLYAIRTQEYSIFAPLSRMEAEIVQQQAPPSYGQLIAQGAIPPVEDFPTENPNDNSVLGNLRSLLQILRQDMTPGGGPGARRRQRGRLMRRLVRRLRRWGLLPRTNTPARASEARSQVTPSAAPLEALDGGTGPAREGGAVGGQDGEQAPPLPIKAPLPSASTSPAPTTVPEAPGPLPSLPLEPSLLSGVVQALRGRLLPSLGPPGPTRSPPGPHTAVLALEDEDDVLLVPLAEPGVWVAEAEDEPLLT [LRP10]	54.7			
ARF1	59.6	57.8		
MAPGRAVAGLLLLAAAGLGGVAEGPGLAFSEDVLSVFGANLSLSAAQLQHLLEQMGAASRVGVPEPGQLHFNQCLTAEEIFSLHGFSNATQITSSKFSVICPAVLQQLNFHPCEDRPKHKTRPSHSEVWGYGFLSVTIINLASLLGLILTPLIKKSYFPKILTFFVGLAIGTLFSNAIFQLIPEAFGFDPKVDSYVEKAVAVFGGFYLLFFFERMLKMLLKTYGQNGHTHFGNDNFGPQEKTHQPKALPAINGVTCYANPAVTEANGHIHFDNVSVVSLQDGKKEPSSCTCLKGPKLSEIGTIAWMITLCDALHNFIDGLAIGASCTLSLLQGLSTSIAILCEEFPHELGDFVILLNAGMSTRQALLFNFLSACSCYVGLAFGILVGNNFAPNIIFALAGGMFLYISLADMFPEMNDMLREKVTGRKTDFTFFMIQNAGMLTGFTAILLITLYAGEIELE [SLC39A8]	58.6			
MENGAVYSPTTEEDPGPARGPRSGLAAYFFMGRLPLLRRVLKGLQLLLSLLAFICEEVVSQCTLCGGLYFFEFVSCSAFLLSLLILIVYCTPFYERVDTTKVKSSDFYITLGTGCVFLLASIIFVSTHDRTSAEIAAIVFGFIASFMFLLDFITMLYEKRQESQLRKPENTTRAEALTEPLNA [CMTM6]	55.6			
MSTRKRRGGAINSRQAQKRTREATSTPEISLEAEPIELVETAGDEIVDLTCESLEPVVVDLTHNDSVVIVDERRRPRRNARRLPQDHADSCVVSSDDEELSRDRDVYVTTHTPRNARDEGATGLRPSGTVSCPICMDGYSEIVQNGRLIVSTECGHVFCSQCLRDSLKNANTCPTCRKKINHKRYHPIYI [RNF4]	53.2			
MAGSEPRSGTNSPPPPFSDWGRLEAAILSGWKTFWQSVSKERVARTTSREEVDEAASTLTRLPIDVQLYILSFLSPHDLCQLGSTNHYWNETVRDPILWRYFLLRDLPSWSSVDWKSLPDLEILKKPISEVTDGAFFDYMAVYRMCCPYTRRASKSSRPMYGAVTSFLHSLIIQNEPRFAMFGPGLEELNTSLVLSLMSSEELCPTAGLPQRQIDGIGSGVNFQLNNQHKFNILILYSTTRKERDRAREEHTSAVNKMFSRHNEGDDQQGSRYSVIPQIQKVCEVVDGFIYVANAEAHKRHEWQDEFSHIMAMTDPAFGSSGRPLLVLSCISQGDVKRMPCFYLAHELHLNLLNHPWLVQDTEAETLTGFLNGIEWILEEVESKRAR [FBXO4]		52		
MESMAVATDGGERPGVPAGSGLSASQRRAELRRRKLLMNSEQRINRIMGFHRPGSGAEEESQTKSKQQDSDKLNSLSVPSVSKRVVLGDSVSTGTTDQQGGVAEVKGTQLGDKLDSFIKPPECSSDVNLELRQRNRGDLTADSVQRGSRHGLEQYLSRFEEAMKLRKQLISEKPSQEDGNTTEEFDSFRIFRLVGCALLALGVRAFVCKYLSIFAPFLTLQLAYMGLYKYFPKSEKKIKTTVLTAALLLSGIPAEVINRSMDTYSKMGEVFTDLCVYFFTFIFCHELLDYWGSEVP [CAMLG]	57.8			
MLCLCLYVPVIGEAQTEFQYFESKGLPAELKSIFKLSVFIPSQEFSTYRQWKQKIVQAGDKDLDGQLDFEEFVHYLQDHEKKLRLVFKSLDKKNDGRIDAQEIMQSLRDLGVKISEQQAEKILKSMDKNGTMTIDWNEWRDYHLLHPVENIPEIILYWKHSTIFDVGENLTVPDEFTVEERQTGMWWRHLVAGGGAGAVSRTCTAPLDRLKVLMQVHASRSNNMGIVGGFTQMIREGGARSLWRGNGINVLKIAPESAIKFMAYEQIKRLVGSDQETLRIHERLVAGSLAGAIAQSSIYPMEVLKTRMALRKTGQYSGMLDCARRILAREGVAAFYKGYVPNMLGIIPYAGIDLAVYETLKNAWLQHYAVNSADPGVFVLLACGTMSSTCGQLASYPLALVRTRMQAQASIEGAPEVTMSSLFKHILRTEGAFGLYRGLAPNFMKVIPAVSISYVVYENLKITLGVQSR [SLC25A25]			-0.983	-0.000686
MEPGEVKDRILENISLSVKKLQSYFAACEDEIPAIRNHDKVLQRLCEHLDHALLYGLQDLSSGYWVLVVHFTRREAIKQIEVLQHVATNLGRSRAWLYLALNENSLESYLRLFQENLGLLHKYYVKNALVCSHDHLTLFLTLVSGLEFIRFELDLDAPYLDLAPYMPDYYKPQYLLDFEDRLPSSVHGSDSLSLNSFNSVTSTNLEWDDSAIAPSSEDYDFGDVFPAVPSVPSTDWEDGDLTDTVSGPRSTASDLTSSKASTRSPTQRQNPFNEEPAETVSSSDTTPVHTTSQEKEEAQALDPPDACTELEVIRVTKKKKIGKKKKSRSDEEASPLHPACSQKKCAKQGDGDSRNGSPSLGRDSPDTMLASPQEEGEGPSSTTESSERSEPGLLIPEMKDTSMERLGQPLSKVIDQLNGQLDPSTWCSRAEPPDQSFRTGSPGDAPERPPLCDFSEGLSAPMDFYRFTVESPSTVTSGGGHHDPAGLGQPLHVPSSPEAAGQEEEGGGGEGQTPRPLEDTTREAQELEAQLSLVREGPVSEPEPGTQEVLCQLKRDQPSPCLSSAEDSGVDEGQGSPSEMVHSSEFRVDNNHLLLLMIHVFRENEEQLFKMIRMSTGHMEGNLQLLYVLLTDCYVYLLRKGATEKPYLVEEAVSYNELDYVSVGLDQQTVKLVCTNRRKQFLLDTADVALAEFFLASLKSAMIKGCREPPYPSILTDATMEKLALAKFVAQESKCEASAVTVRFYGLVHWEDPTDESLGPTPCHCSPPEGTITKEGMLHYKAGTSYLGKEHWKTCFVVLSNGILYQYPDRTDVIPLLSVNMGGEQCGGCRRANTTDRPHAFQVILSDRPCLELSAESEAEMAEWMQHLCQAVSKGVIPQGVAPSPCIPCCLVLTDDRLFTCHEDCQTSFFRSLGTAKLGDISAVSTEPGKEYCVLEFSQDSQQLLPPWVIYLSCTSELDRLLSALNSGWKTIYQVDLPHTAIQEASNKKKFEDALSLIHSAWQRSDSLCRGRASRDPWC [PLEKHM2]			-1.92	-1.58
MWSGPPQPDQGLPPPLAAVPVPWKSTDPCQGHRESPGALVETSAGEEAQGQEGPAAAQLDVLRLRSSSMEIREKGSEFLKEELHRAQKELKLKDEECERLSKVREQLEQELEELTASLFEEAHKMVREANMKQAASEKQLKEARGKIDMLQAEVTALKTLVITSTPASPNRELHPQLLSPTKAGPRKGHSRHKSTSSTLCPAVCPAAGHTLTPDREGKEVDTILFAEFQAWRESPTLDKTCPFLERVYREDVGPCLDFTMQELSVLVRAAVEDNTLTIEPVASQTLPTVKVAEVDCSSTNTCALSGLTRTCRHRIRLGDSKSHYYISPSSRARITAVCNFFTYIRYIQQGLVRQDAEPMFWEIMRLRKEMSLAKLGFFPQEA [RAB3IL1]			-0.0366	0.539
MHTLVFLSTRQVLQCQPAACQALPLLPRELFPLLFKVAFMDKKTVVLRELVHTWPFPLLSFQQLLQECAHCSRALLQERPSTESMQAVILGLTARLHTSEPGASTQPLCRKHALRVLDMTGLLDDGVEQDPGTMSMWDCTAAVARTCIAQQQGGAAEPGPAPIPVEVRVDLRVNRASYAFLREALRSSVGSPLRLCCRDLRAEDLPMRNTVALLQLLDAGCLRRVDLRFNNLGLRGLSVIIPHVARFQHLASLRLHYVHGDSRQPSVDGEDNFRYFLAQMGRFTCLRELSMGSSLLSGRLDQLLSTLQSPLESLELAFCALLPEDLRFLARSPHAAHLKKLDLSGNDLSGSQLAPFQGLLQASAATLLHLELTECQLADTQLLATLPILTQCASLRYLGLYGNPLSMAGLKELLRDSVAQAELRTVVHPFPVDCYEGLPWPPPASVLLEASINEEKFARVEAELHQLLLASGRAHVLWTTDIYGRLAADYFSL [LRRC14]			-0.753	-0.00668
MGSNSSRIGDLPKNEYLKKLSGTESISENDPFWNQLLSFSFPAPTSSSELKLLEEATISVCRSLVENNPRTGNLGALIKVFLSRTKELKLSAECQNHIFIWQTHNALFIICCLLKVFICQMSEEELQLHFTYEEKSPGNYSSDSEDLLEELLCCLMQLITDIPLLDITYEISVEAISTMVVFLSCQLFHKEVLRQSISHKYLMRGPCLPYTSKLVKTLLYNFIRQEKPPPPGAHVFPQQSDGGGLLYGLASGVATGLWTVFTLGGVGSKAAASPELSSPLANQSLLLLLVLANLTDASDAPNPYRQAIMSFKNTQDSSPFPSSIPHAFQINFNSLYTALCEQQTSDQATLLLYTLLHQNSNIRTYMLARTDMENLVLPILEILYHVEERNSHHVYMALIILLILTEDDGFNRSIHEVILKNITWYSERVLTEISLGSLLILVVIRTIQYNMTRTRDKYLHTNCLAALANMSAQFRSLHQYAAQRIISLFSLLSKKHNKVLEQATQSLRGSLSSNDVPLPDYAQDLNVIEEVIRMMLEIINSCLTNSLHHNPNLVYALLYKRDLFEQFRTHPSFQDIMQNIDLVISFFSSRLLQAGAELSVERVLEIIKQGVVALPKDRLKKFPELKFKYVEEEQPEEFFIPYVWSLVYNSAVGLYWNPQDIQLFTMDSD [DYM]			0.139	0.823
MASAVFEGTSLVNMFVRGCWVNGIRRLIVSRRGDEEEFFEIRTEWSDRSVLYLHRSLADLGRLWQRLRDAFPEDRSELAQGPLRQGLVAIKEAHDIETRLNEVEKLLKTIISMPCKYSRSEVVLTFFERSPLDQVLKNDNVHKIQPSFQSPVKISEIMRSNGFCLANTETIVIDHSIPNGRDQQLGVDPTEHLFENGSEFPSELEDGDDPAAYVTNLSYYHLVPFETDIWD [PXDC1]			-0.022	0.549
MSGFENLNTDFYQTSYSIDDQSQQSYDYGGSGGPYSKQYAGYDYSQQGRFVPPDMMQPQQPYTGQIYQPTQAYTPASPQPFYGNNFEDEPPLLEELGINFDHIWQKTLTVLHPLKVADGSIMNETDLAGPMVFCLAFGATLLLAGKIQFGYVYGISAIGCLGMFCLLNLMSMTGVSFGCVASVLGYCLLPMILLSSFAVIFSLQGMVGIILTAGIIGWCSFSASKIFISALAMEGQQLLVAYPCALLYGVFALISVF [YIPF5]			-0.124	-0.361
